B1: Azoarcus group I ribozyme (parent)
chain: GUGCCUUGCGCCGGGAAACCACGCAAGGGAUGGUGUCAAAUUCGGCGAAACCUAAGCGCCCGCCCGGGCGUAUGGCAACGCCGAGCCAAGCUUCGGCGCCUGCGCCGAUGAAGGUGUAGAGACUAGACGGCACCCACCUAAGGCAAACGCUAUGGUGAAGGCAUAGUCCAGGGAGUGGCGAAAGUCACACAAACCGG

Variants of: B1
Assay: reverse-splicing fitness (ratio to wild type); higher = more active; in vitro selection; Mg2+ level not given
How it was run: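 An in vitro group I ribozyme library with randomized positions was T7-transcribed and gel-purified. In triplicate, 10 pmol RNA in EPPS pH 7.5 was reacted with 50 pmoles of a 30-nt RNA substrate for 1 h at 37 °C across several added MgCl2 levels (1–48 mM), then stopped with EDTA. Products were reverse transcribed from a substrate-complementary primer, PCR-amplified and sequenced (HiSeq 4000). Fitness is a variant's read proportion after selection over that before, normalised to wild type.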

**Q.** With C82U A111C A120G A145U C169G as the variant, how does the reverse-splicing fitness read?
**A.** 0.00905

**Q.** For C82U A111C A120C C169A, which reverse-splicing fitness is on record?
**A.** 0.00788

**Q.** Which reverse-splicing fitness does the source give for C82U A111C A120C C169G here?
**A.** 0.00813

**Q.** For C82U A111C A120C C169U, which reverse-splicing fitness is on record?
**A.** 0.0127

**Q.** Which reverse-splicing fitness does the source give for C82U A111C A120G A145U C150G C169A U176C here?
**A.** 0.00893

**Q.** For C82U A111C A120G A145U C150G C169A U176A, which reverse-splicing fitness is on record?
**A.** 0.0108

**Q.** For C82U A111C A120G A145U C150G C169A U176G, which reverse-splicing fitness is on record?
**A.** 0.00541

**Q.** Which reverse-splicing fitness does the source give for C82U A111C A120G A145G C150A C169G here?
**A.** 0.00809

**Q.** With C82U A111C A120G A145G C150A C169A as the variant, how does the reverse-splicing fitness read?
**A.** 0.00989

**Q.** Which reverse-splicing fitness does the source give for C82U A111C A120G A145G C150A C169U here?
**A.** 0.00786

**Q.** For C82U A111C A120G A145G C150G C169U, which reverse-splicing fitness is on record?
**A.** 0.00832

**Q.** With C82U A111C A120G A145G C150G C169G as the variant, how does the reverse-splicing fitness read?
**A.** 0.0068

**Q.** Which reverse-splicing fitness does the source give for C82U A111C A120G A145G C150G C169A here?
**A.** 0.0087

**Q.** Which reverse-splicing fitness does the source give for C82U A111C A120G A145U C150U C169U U176G here?
**A.** 0.00431

**Q.** Which reverse-splicing fitness does the source give for C82U A111C A120G A145U C150U C169U U176A here?
**A.** 0.0158

**Q.** With C82U A111C A120G A145U C150U C169U U176C as the variant, how does the reverse-splicing fitness read?
**A.** 0.0107

**Q.** Which reverse-splicing fitness does the source give for C82U A111C A120U A145C C150U C169G U176A here?
**A.** 0.003

**Q.** Which reverse-splicing fitness does the source give for C82U A111C A120U A145C C150U C169G U176C here?
**A.** 0.00273

**Q.** For C82U A111C A120U A145C C150U C169G U176G, which reverse-splicing fitness is on record?
**A.** 0.00216

**Q.** With C82U A111C A120U A145C C150A C169U U176C as the variant, how does the reverse-splicing fitness read?
**A.** 0.00249

**Q.** With C82U A111C A120U A145C C150A C169U U176G as the variant, how does the reverse-splicing fitness read?
**A.** 0.00207

**Q.** With C82U A111C A120U A145C C150A C169U U176A as the variant, how does the reverse-splicing fitness read?
**A.** 0.00323

**Q.** Which reverse-splicing fitness does the source give for C82U A111C A120G A145C C150A C169G U176A here?
**A.** 0.0204

**Q.** For C82U A111C A120G A145C C150A C169G U176C, which reverse-splicing fitness is on record?
**A.** 0.0127

**Q.** Which reverse-splicing fitness does the source give for C82U A111C A120G A145C C150A C169G U176G here?
**A.** 0.00512

**Q.** For C82U A111C A120G A145C C150A U176G, which reverse-splicing fitness is on record?
**A.** 0.00348

**Q.** For C82U A111C A120G A145C C150A U176C, which reverse-splicing fitness is on record?
**A.** 0.00967

**Q.** With C82U A111C A120G A145C C150A U176A as the variant, how does the reverse-splicing fitness read?
**A.** 0.00897

**Q.** For C82U A111C A120C C169A U176C, which reverse-splicing fitness is on record?
**A.** 0.0189

**Q.** For C82U A111C A120C C169A U176G, which reverse-splicing fitness is on record?
**A.** 0.00546

**Q.** With C82U A111C A120C C169A U176A as the variant, how does the reverse-splicing fitness read?
**A.** 0.016

**Q.** Which reverse-splicing fitness does the source give for C82U A111C A120G C150A C169U U176A here?
**A.** 0.0192

**Q.** For C82U A111C A120G C150A C169U U176G, which reverse-splicing fitness is on record?
**A.** 0.00544

**Q.** Which reverse-splicing fitness does the source give for C82U A111C A120G C150A C169U U176C here?
**A.** 0.0146

**Q.** For C82U A111C A120G A145U U176C, which reverse-splicing fitness is on record?
**A.** 0.0192

**Q.** With C82U A111C A120G A145U U176A as the variant, how does the reverse-splicing fitness read?
**A.** 0.0148

**Q.** With C82U A111C A120G A145U U176G as the variant, how does the reverse-splicing fitness read?
**A.** 0.00452

**Q.** With C82U A111C A120G A145G C150U U176C as the variant, how does the reverse-splicing fitness read?
**A.** 0.0169

**Q.** For C82U A111C A120G A145G C150U U176A, which reverse-splicing fitness is on record?
**A.** 0.00886

**Q.** For C82U A111C A120G A145G C150U U176G, which reverse-splicing fitness is on record?
**A.** 0.00547

**Q.** Which reverse-splicing fitness does the source give for C82U A111C A120U A145C C150G C169G U176G here?
**A.** 0.00241

**Q.** Which reverse-splicing fitness does the source give for C82U A111C A120U A145C C150G C169G U176A here?
**A.** 0.0028

**Q.** For C82U A111C A120U A145C C150G C169G U176C, which reverse-splicing fitness is on record?
**A.** 0.00262

**Q.** With C82U A111C A120U A145C C150G C169U U176G as the variant, how does the reverse-splicing fitness read?
**A.** 0.00217

**Q.** With C82U A111C A120U A145C C150G C169U U176A as the variant, how does the reverse-splicing fitness read?
**A.** 0.00332

**Q.** For C82U A111C A120U A145C C150G C169U U176C, which reverse-splicing fitness is on record?
**A.** 0.00284

**Q.** Which reverse-splicing fitness does the source give for C82U A111C A120G C150A C169G U176G here?
**A.** 0.00479

**Q.** With C82U A111C A120G C150A C169G U176C as the variant, how does the reverse-splicing fitness read?
**A.** 0.0202

**Q.** For C82U A111C A120G C150A C169G U176A, which reverse-splicing fitness is on record?
**A.** 0.0168

**Q.** Which reverse-splicing fitness does the source give for C82U A111C A120U A145C here?
**A.** 0.0226

**Q.** With C82U A111C A120G A145U C150U C169A as the variant, how does the reverse-splicing fitness read?
**A.** 0.00896

**Q.** With C82U A111C A120G A145U C150U C169U as the variant, how does the reverse-splicing fitness read?
**A.** 0.00803

**Q.** Which reverse-splicing fitness does the source give for C82U A111C A120G A145U C150U C169G here?
**A.** 0.00846

**Q.** With C82U A111C A120G A145U C150A as the variant, how does the reverse-splicing fitness read?
**A.** 0.00775

**Q.** Which reverse-splicing fitness does the source give for C82U A111C A120G A145U C150U here?
**A.** 0.0111

**Q.** Which reverse-splicing fitness does the source give for C82U A111C A120G A145U C150G here?
**A.** 0.00658

**Q.** With C82U A111C A120G A145U C150U U176G as the variant, how does the reverse-splicing fitness read?
**A.** 0.00357

**Q.** Which reverse-splicing fitness does the source give for C82U A111C A120G A145U C150U U176C here?
**A.** 0.0178

**Q.** Which reverse-splicing fitness does the source give for C82U A111C A120G A145U C150U U176A here?
**A.** 0.013

**Q.** With C82U A111C A120G C169U as the variant, how does the reverse-splicing fitness read?
**A.** 0.0077

**Q.** For C82U A111C A120G C169G, which reverse-splicing fitness is on record?
**A.** 0.0104

**Q.** With C82U A111C A120G C169A as the variant, how does the reverse-splicing fitness read?
**A.** 0.00844

**Q.** For C82U A111C A120G A145C C169G U176A, which reverse-splicing fitness is on record?
**A.** 0.0216

**Q.** Which reverse-splicing fitness does the source give for C82U A111C A120G A145C C169G U176G here?
**A.** 0.00397

**Q.** With C82U A111C A120G A145C C169G U176C as the variant, how does the reverse-splicing fitness read?
**A.** 0.0122

**Q.** Which reverse-splicing fitness does the source give for C82U A111C A120G C150G C169A here?
**A.** 0.00813

**Q.** Which reverse-splicing fitness does the source give for C82U A111C A120G C150G C169U here?
**A.** 0.00766

**Q.** With C82U A111C A120G C150G C169G as the variant, how does the reverse-splicing fitness read?
**A.** 0.00667

**Q.** With C82U A111C A120G C150U as the variant, how does the reverse-splicing fitness read?
**A.** 0.0115

**Q.** Which reverse-splicing fitness does the source give for C82U A111C A120G C150G here?
**A.** 0.00744

**Q.** For C82U A111C A120G C150A, which reverse-splicing fitness is on record?
**A.** 0.00908

**Q.** Which reverse-splicing fitness does the source give for C82U A111C A120G C150A C169A U176C here?
**A.** 0.0186

**Q.** With C82U A111C A120G C150A C169A U176A as the variant, how does the reverse-splicing fitness read?
**A.** 0.0163

**Q.** For C82U A111C A120G C150A C169A U176G, which reverse-splicing fitness is on record?
**A.** 0.00529

**Q.** For C82U A111C A120G A145G U176C, which reverse-splicing fitness is on record?
**A.** 0.0199

**Q.** With C82U A111C A120G A145G U176G as the variant, how does the reverse-splicing fitness read?
**A.** 0.00476

**Q.** For C82U A111C A120G A145G U176A, which reverse-splicing fitness is on record?
**A.** 0.0143

**Q.** With C82U A111C A120U A145C C150A U176G as the variant, how does the reverse-splicing fitness read?
**A.** 0.00265

**Q.** With C82U A111C A120U A145C C150A U176A as the variant, how does the reverse-splicing fitness read?
**A.** 0.00307

**Q.** For C82U A111C A120U A145C C150A U176C, which reverse-splicing fitness is on record?
**A.** 0.00397

**Q.** With C82U A111C A120G A145G C150G as the variant, how does the reverse-splicing fitness read?
**A.** 0.00776

**Q.** Which reverse-splicing fitness does the source give for C82U A111C A120G A145G C150U here?
**A.** 0.0115

**Q.** Which reverse-splicing fitness does the source give for C82U A111C A120G A145G C150A here?
**A.** 0.00814

**Q.** For C82U A111C A120C C150U C169U U176C, which reverse-splicing fitness is on record?
**A.** 0.0196
